# Measured values as given in patent US20230340137A1, “METHODS, THERAPIES AND USES FOR TREATING CANCER” (PFIZER INC., priority 2020, published 2023).
# What was measured:
# [1] = test system: adult patients with advanced multiple myeloma; test: Phase 1 clinical study NCT03269136, safety (DLT, CRS); type: in vivo
# Source text: (§1) This Example illustrates an ongoing Phase 1 open-label, multicenter clinical study of PF-06863135 (BCMA×CD3 bispecific) as monotherapy and in combination with sasanlimab, lenalidomide or pomalidomide, in adult patients with advanced multiple myeloma who have relapsed from or are refractory to standard therapy. The study has been registered on ClinicalTrials.gov with identifier NCT03269136 and was first posted August 2017. Study results for Part 1 of the trial and additional arms for the study are described in this Example.
# (§2) Part 1 of the Study is the […] single agent dose escalation arm at the dose levels of 0.1, 0.3, 1, 3, 10, 30, and 50 μg/kg Q1W by intravenous (IV) administration, and at the dose levels of 80, 130, 215, 360, 600 and 1000 μg/kg Q1W by subcutaneous (SC) administration. Upon reaching maximum tolerated dose (MTD)/maximum administered dose (MAD), patients can be treated at a dose level selected from the foregoing dose levels described in this paragraph, and below the MTD/MAD fora Q2W administration, both IV and SC, to further support the recommended phase 2 dose (RP2D) decision. For the study, dose limiting toxicity observation period is set at 21 days for Q1W dosing and 28 days for Q2W dosing. The treatment cycle, aka cycle, for Q1W dosing would be 3 weeks, and for Q2W dosing would be four weeks.
# (§3) Clinical Outcome of Part 1 of the Study. As of 15 Apr. 2020, a total of 23 patients were enrolled in Part 1 of the study and had been treated with PF-06863135 administered intravenously (IV) at 0.1 (N=2), 0.3 (N=3), 1 (N=2), 3 (N=3), 10 (N=2), 30 (N=5), and 50 (N=6) μg/kg. As of Aug. 21, 2020, a total of 30 patients were enrolled in Part 1 of the study and had been treated with PF-06863135 administered subcutaneously (SC) at 80 (N=6), 130 (N=4), 215 (N=4), 360 (N=4), 600 (N=6) and 1000 (N=6) μg/kg. Safety and efficacy data were available for in 23 IV and 30 SC treated patients per IMWG (International Myeloma Working Group) criteria.
# (§4) Part 1.1 of the Study is an alternative maintenance dose escalation arm for single agent PF-06863135. If excessive toxicity occurs or the maximum tolerated dose (MTD)/maximum administered dose (MAD) is reached at a dose level that is earlier than desired in Part 1 of the study described above, a priming dose will be administered one week prior to the day 1 cycle 1 administration of the dose (maintenance dose) at this dose level and for all subsequent dose levels in the dose escalation that may be initiated for Part 1.1. The priming dosing will be at a lower dose level than the maintenance dose.
# (§5) Clinical outcome of Part 1.1 of the Study. As of Feb. 4, 2021, a total of 20 patients were enrolled and treatment in Part 1.1 of the Study, with cohort of 7 patients at a 600 μg/kg priming dose followed by 1000 μg/kg Q1W dosing, and a cohort of 13 patients at a 600 μg/kg priming dose followed by 1000 μg/kg Q2W dosing. The CRS in these two cohorts is described in Table 13. Introducing of priming dose decreased medium duration of CRS by 50%, from 4 days to 2 days. The dose frequency in part 1.1 of the study (Q1W v. Q2W) had no impact on the CRS. Patient response of Part 1.1 of the Study is described in Table 14.
# [2] = test system: adult patients with advanced multiple myeloma; test: Phase 1 clinical study NCT03269136, patient response per IMWG criteria; type: in vivo, human
# Source text: as §1, §2, §3, §4, §5
# [3] = 600 μg/kg priming, 1000 μg/kg Q1W or Q2W SC, N = 20
# [4] = all SC treated patients (Part 1)
# [5] = 600 μg/kg priming, 1000 μg/kg Q1W SC, N = 7
# [6] = 600 μg/kg priming, 1000 μg/kg Q2W SC, N = 13
substance,measurement,setting,value
"PF-06863135: heterodimeric humanized full-length bispecific antibody, one BCMA binding arm and one CD3 binding arm, modified human IgG2Δa Fc",Patients with CRS (number),[1]; 10 μg/kg IV cohort,1
same,patients with CRS (percent),[1]; 10 μg/kg IV cohort,50.0%
same,Patients with CRS (number),[1]; 30 μg/kg IV cohort,4
same,patients with CRS (percent),[1]; 30 μg/kg IV cohort,80.0%
same,patients with dose limiting toxicities (DLTs),[1]; 30 μg/kg IV cohort,1 patient
same,"patients in whom CRS also occurred after second, third or fourth dose",[1]; 50 μg/kg IV,3 patients
same,Patients with CRS (number),[1]; 50 μg/kg IV cohort,6
same,patients with CRS (percent),[1]; 50 μg/kg IV cohort,100.0%
same,patients with dose limiting toxicities (DLTs),[1]; 50 μg/kg IV cohort,1 patient
same,CRS Grade 1 (number of patients),"[1]; 80 μg/kg Q1W SC, N = 6",2
same,CRS Grade 2 (number of patients),"[1]; 80 μg/kg Q1W SC, N = 6",1
same,CRS Mean duration,"[1]; 80 μg/kg Q1W SC, N = 6",1 days
same,Patients with CRS (number),"[1]; 80 μg/kg Q1W SC, N = 6",3
same,CRS Grade 1 (number of patients),"[1]; 130 μg/kg Q1W SC, N = 4",2
same,CRS Grade 2 (number of patients),"[1]; 130 μg/kg Q1W SC, N = 4",0
same,CRS Mean duration,"[1]; 130 μg/kg Q1W SC, N = 4",3 days
same,Patients with CRS (number),"[1]; 130 μg/kg Q1W SC, N = 4",2
same,CRS Grade 1 (number of patients),"[1]; 215 μg/kg Q1W SC, N = 4",3
same,CRS Grade 2 (number of patients),"[1]; 215 μg/kg Q1W SC, N = 4",0
same,CRS Mean duration,"[1]; 215 μg/kg Q1W SC, N = 4",3 days
same,Patients with CRS (number),"[1]; 215 μg/kg Q1W SC, N = 4",3
same,CRS Grade 1 (number of patients),"[1]; 360 μg/kg Q1W SC, N = 4",2
same,CRS Grade 2 (number of patients),"[1]; 360 μg/kg Q1W SC, N = 4",1
same,CRS Mean duration,"[1]; 360 μg/kg Q1W SC, N = 4",1.7 days
same,Patients with CRS (number),"[1]; 360 μg/kg Q1W SC, N = 4",3
same,CRS Grade 1 (number of patients),"[1]; 600 μg/kg Q1W SC, N = 6",4
same,CRS Grade 2 (number of patients),"[1]; 600 μg/kg Q1W SC, N = 6",2
same,CRS Mean duration,"[1]; 600 μg/kg Q1W SC, N = 6",1.7 days
same,Patients with CRS (number),"[1]; 600 μg/kg Q1W SC, N = 6",6
same,decrease of duration of CRS by introducing priming dose,"[1]; 600 μg/kg priming then 1000 μg/kg vs 1000 μg/kg without priming, SC",50%
same,CRS Grade 1 (number of patients),[1]; [3],11
same,CRS Grade 2 (number of patients),[1]; [3],9
same,CRS Mean duration,[1]; [3],2 days
same,Patients with CRS (number),[1]; [3],20
same,patients with CRS (percent),[1]; [3],(100%)
same,CRS Grade 1 (number of patients),"[1]; 1000 μg/kg Q1W SC, N = 6",5
same,CRS Grade 2 (number of patients),"[1]; 1000 μg/kg Q1W SC, N = 6",1
same,CRS Mean duration,"[1]; 1000 μg/kg Q1W SC, N = 6",4 days
same,Patients with CRS (number),"[1]; 1000 μg/kg Q1W SC, N = 6",6
same,toxicities,[1]; 600 and 1000 μg/kg SC,tolerable and manageable
same,patients with dose limiting toxicities (DLTs),"[1]; IV cohorts, 23 patients, febrile neutropenia Grade 3 and electrocardiogram QT prolongation Grade 1",2 patients
same,CRS onset after dosing,"[1]; IV cohorts, each patient with CRS",≤ 2 days
same,"Cytokine release syndrome (CRS), rank among adverse events",[1]; Part 1 of the study,most common adverse event reported
same,impact of dose frequency (Q1W v. Q2W) on the CRS,"[1]; Part 1.1, 600 μg/kg priming, 1000 μg/kg SC",no impact
same,patients with dose limiting toxicities (DLTs),"[1]; SC cohorts, 30 patients",No patients
same,CRS onset after dosing,"[1]; SC cohorts, primarily",≤ 2 days
same,Patients with CRS (number),[1]; all IV cohorts,11 patients
same,patients with maximum Grade 1 CRS (number),[1]; all IV treated patients,6
same,patients with maximum Grade 1 CRS (percent),[1]; all IV treated patients,26.1%
same,patients with maximum Grade 2 CRS (number),[1]; all IV treated patients,5
same,patients with maximum Grade 2 CRS (percent),[1]; all IV treated patients,21.7%
same,patients with maximum Grade 1 CRS (number),[1]; [4],18
same,patients with maximum Grade 1 CRS (percent),[1]; [4],60.0%
same,patients with maximum Grade 2 CRS (number),[1]; [4],5
same,patients with maximum Grade 2 CRS (percent),[1]; [4],16.7%
same,CRS severity in SC-treated vs IV-treated patients,[1]; despite higher overall dose exposure in SC-treated patients,less severe
same,timing of CRS relative to doses,[1]; results of Part 1 of the Study,primarily occurs after the initial dose
same,patients achieving a complete response,[2]; 50 μg/kg IV,1 patient
same,OR (percent),"[2]; 215 μg/kg SC, N = 4",(75%)
same,OR (responders/patients),"[2]; 215 μg/kg SC, N = 4",3/4
same,PR (number of patients),"[2]; 215 μg/kg SC, N = 4",1
same,sCR (number of patients),"[2]; 215 μg/kg SC, N = 4",2
same,OR (percent),"[2]; 360 μg/kg SC, N = 4",(75%)
same,OR (responders/patients),"[2]; 360 μg/kg SC, N = 4",3/4
same,PD (number of patients),"[2]; 360 μg/kg SC, N = 4",1
same,VGPR (number of patients),"[2]; 360 μg/kg SC, N = 4",2
same,sCR (number of patients),"[2]; 360 μg/kg SC, N = 4",1
same,OR (percent),"[2]; 600 μg/kg SC, N = 6",(67%)
same,OR (responders/patients),"[2]; 600 μg/kg SC, N = 6",4/6
same,PD (number of patients),"[2]; 600 μg/kg SC, N = 6",1
same,VGPR (number of patients),"[2]; 600 μg/kg SC, N = 6",2
same,sCR (number of patients),"[2]; 600 μg/kg SC, N = 6",2
same,CR (number of patients),[2]; [5],2
same,OR (percent),[2]; [5],(57%)
same,OR (responders/patients),[2]; [5],4/7
same,PR (number of patients),[2]; [5],1
same,VGPR (number of patients),[2]; [5],1
same,OR (percent),[2]; [6],(54%)
same,OR (responders/patients),[2]; [6],7/13
same,PD (number of patients),[2]; [6],3
same,PR (number of patients),[2]; [6],3
same,VGPR (number of patients),[2]; [6],4
same,CR (number of patients),"[2]; 1000 μg/kg SC, N = 6",1
same,OR (percent),"[2]; 1000 μg/kg SC, N = 6",(83%)
same,OR (responders/patients),"[2]; 1000 μg/kg SC, N = 6",5/6
same,PD (number of patients),"[2]; 1000 μg/kg SC, N = 6",1
same,PR (number of patients),"[2]; 1000 μg/kg SC, N = 6",1
same,VGPR (number of patients),"[2]; 1000 μg/kg SC, N = 6",3
same,clinical efficacy,[2]; 600 and 1000 μg/kg SC,seen in most patients
same,subjects with best response of stable disease,[2]; IV cohorts (0.3-50 μg/kg),Ten
same,patients achieving a minimal response,"[2]; IV cohorts, at 3 μg/kg and 50 μg/kg IV",2 patients
